In patent US20120028912:

Target: T1, HIV-1 Tat protein, wild type
T1 chain: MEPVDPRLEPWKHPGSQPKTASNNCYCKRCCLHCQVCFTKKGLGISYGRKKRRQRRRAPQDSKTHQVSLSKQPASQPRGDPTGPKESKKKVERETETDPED

B1: p300/CBP-associated factor (P/CAF), HA-tagged (protein)
chain: MSEAGGAGPGGCGAGAGAGAGPGALPPQPAALPPAPPQGSPCAAAAGGSGACGPATAVAAAGTAEGPGGGGSARIAVKKAQLRSAPRAKKLEKLGVYSACKAEESCKCNGWKNPNPSPTPPRADLQQIIVSLTESCRSCSHALAAHVSHLENVSEEEMNRLLGIVLDVEYLFTCVHKEEDADTKQVYFYLFKLLRKSILQRGKPVVEGSLEKKPPFEKPSIEQGVNNFVQYKFSHLPAKERQTIVELAKMFLNRINYWHLEAPSQRRLRSPNDDISGYKENYTRWLCYCNVPQFCDSLPRYETTQVFGRTLLRSVFTVMRRQLLEQARQEKDKLPLEKRTLILTHFPKFLSMLEEEVYSQNSPIWDQDFLSASSRTSQLGIQTVINPPPVAGTISYNSTSSSLEQPNAGSSSPACKASSGLEANPGEKRKMTDSHVLEEAKKPRVMGDIPMELINEVMSTITDPAAMLGPETNFLSAHSARDEAARLEERRGVIEFHVVGNSLNQKPNKKILMWLVGLQNVFSHQLPRMPKEYITRLVFDPKHKTLALIKDGRVIGGICFRMFPSQGFTEIVFCAVTSNEQVKGYGTHLMNHLKEYHIKHDILNFLTYADEYAIGYFKKQGFSKEIKIPKTKYVGYIKDYEGATLMGCELNPRIPYTEFSVIIKKQKEIIKKLIERKQAQIRKVYPGLSCFKDGVRQIPIESIPGIRETGWKPSGKEKSKEPRDPDQLYSTLKSILQQVKSHQSAWPFMEPVKRTEAPGYYEVIRFPMDLKTMSERLKNRYYVSKKLFMADLQRVFTNCKEYNAAESEYYKCANILEKFFFSKIKEAGLIDK
Superinduction of Tat transactivation activity: as much as a 30-fold increase upon P/CAF stimulation
